Values quoted from earlier work, collected in paper PMC6858539.
Where two headings read alike, the source gives them in different places.

Key:
[1] = target: RodZ nascent chain on ribosome (RNC-RodZ) (Escherichia coli) (UniProt P27434)
[2] = target: RodZ nascent chain on ribosome (RNC-RodZ) (Escherichia coli) (UniProt P27434); remark: listed apart in the source

UniProt P27434, sequence (P27434 whole entry): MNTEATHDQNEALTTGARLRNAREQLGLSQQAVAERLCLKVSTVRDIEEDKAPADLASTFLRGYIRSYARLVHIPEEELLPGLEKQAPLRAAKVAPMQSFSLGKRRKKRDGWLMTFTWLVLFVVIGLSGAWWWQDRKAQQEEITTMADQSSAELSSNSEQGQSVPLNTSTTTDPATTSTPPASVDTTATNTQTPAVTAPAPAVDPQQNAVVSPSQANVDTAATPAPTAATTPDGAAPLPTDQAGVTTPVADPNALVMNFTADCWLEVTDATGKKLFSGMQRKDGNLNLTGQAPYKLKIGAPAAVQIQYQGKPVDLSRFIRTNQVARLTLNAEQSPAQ

Kd [1] [µM] | Kd [2] [µM] | Substance
0.024 |  | SRP (from UniProt P0AGD7)
 | < 0.001 | SecA (from UniProt P10408)
